Test system: K4 kissing-loop RNA reporter
Test: apparent KD of K4 kissing-loop reporter; higher = weaker reporter binding
Conditions: Eterna round: R107
Description: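 RNA-MaP round R107: designed RNA switches with theophylline, tryptophan, arginine or FMN aptamers are transcribed on-chip within common flanks. They are titrated with a labelled K4 kissing-loop RNA reporter in RNA-MaP buffer (100 mM Tris pH 7.5, 80 mM KCl, 4 mM MgCl2), without ligand or with the indicated ligand. Median apparent KD per design.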

[1] = input ligand: theophylline 20 uM
[2] = input ligand: tryptophan 2.4 mM
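Further: bound reporter read as fluorescence of individual clusters on recovered sequencing chips by microscopy, with normalized cluster intensities fitted with a binding model.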

Sequence | apparent KD of K4 kissing-loop reporter (input ligand: FMN 200 uM) [µM] | apparent KD of K4 kissing-loop reporter (input ligand: arginine 13.2 mM) [µM] | apparent KD of K4 kissing-loop reporter (input ligand: none) [µM] | apparent KD of K4 kissing-loop reporter [1] [µM] | apparent KD of K4 kissing-loop reporter [2] [µM]
CACCAUGAAUUCUCUAGGAGUGAUGUUUUUCGAGGACCGGUACGGCCGCCACUCGGACCAGGAACGUGGGAGCGGCGAAAAGACU [ttmullin] | 0.656 | 0.438 | 0.688 | 0.494 | 0.373
CUCGUGGGUUUGAGAGGGCUUGUGGGAAGAUAGGAUAUCUAGGGAGGGAGAAGGAUCUAUAGAAUAUAGUGAUGUUAUAUAUGGG [#05 K4 FMN A Same State] | 0.164 | 0.131 | 0.0877 | 0.154 | 0.122
CGUAGUUGGGCGGCCGCCACUUGAAAAGCUUUGCCAAAGGCAGAGCUCUAGAGUGAUGUUCUGGCAAGGACCGGGUCCAACUACA [#03 K4 Tryptophan B Same State] | 0.869 | 0.719 | 0.872 | 0.59 | 0.358
GAGUUUCGUAAAGGAUAUUCUAGCUAAAGCCAUUAGUGAUGUUGAUGUACGGACGGAAGCCUGGCAGAAGAAGGUUAACAGGAUU [theeternabot_sameState_KL_FMN_B_24] | 0.708 | 0.326 | 0.41 | 0.42 | 0.312
UUUAAAUAUAGUGAUGUUAUAUAACAAUGACGAGGACCGGUACGGCCGCCACUCGAGAGAGAUAAUGGUCGUUAGAAUCUAACGC [AstrosSSTryA#5] | 0.76 | 0.778 | 0.685 | 0.963 | 0.484
UAGCGGGCGAUUCGACGUGCGUCCAGUCAUCGAGGACCGGUACGGCCGCCACUCGCCGGAGUGAUGUUCCGGUACGUCAUAUAAU [theeternabot_sameState_KL_Trp_A_35] | 0.406 | 0.358 | 0.398 | 0.422 | 0.197
AAACAUUGGUCUGAUACCAGUUAGACCGAUAAGGUCAAAACUGGAGUGAUGUUCCCAAAUAACCCUUGGCAGCAGACCGAUGAAA [MAT - Same State Theophlline B - Mod of Eli - D10] | 0.147 | 0.066 | 0.212 | 0.185 | 0.231
CGCAGUGAUGUUGCGAACAUAAUGCAUUCAGAGGAUAUUCGUUUGGGAAGAAGGCUGAAUCGUUUUUCGAGUGAUGUUUGAGGAA [Same State FMN A GF 18] | 0.106 | 0.0882 | 0.114 | 0.091 | 0.0946
UGAGAGUACCGGAUGGAGAAAUUGUAUGAUACCAGAGCAGAUUACCUCCCUUGGCAGCAUGCAUCCUGCUAGUGAUGUUGGCAAC [theeternabot_sameState_KL_Theo_A_48] | 0.676 | 0.459 | 0.741 | 0.669 | 0.535
AGAUGUCCCUGGGAUACCAGUCGGAGUCUCAGAGCUCGGAGUGAUGUUCUGGGAUGUUUCGGCCCUUGGCAGCUCUGGGACUCCC [#2 Exclusion - Theophylline B Attempt #25 (HarryS)] | 0.603 | 0.722 | 0.847 | 0.708 | 0.909
AAGUCACAGGCAGGAUAUGCUUAGUAUUAAGGCCAUAUAUACGUAUAGAGUGAUGUUUUGUACCAGGCAGAAGGGCUACAUCCGU [FMN B Excl V4 (+U)] | 0.93 | 0.44 | 0.656 | 0.645 | 0.463
CGGUAGUCUAUAGGGUCCAGUGAUGUUGGACAGGAUAUGCUACGCCGCAGAAGGGUCCAACUGGUUGUGAAGUUGGCUACUAGGC [Somaaxe] | 0.144 | 0.2 | 0.168 | 0.147 | 0.189
GCGCGUCAUGGCGGCGGUGACUACGCCGAUACCAGCCGGGAAACCGGCCCUUGGCAGCGGCGCGCCGGAGUGAUGUUCCGACAGA [#2 Exclusion - Theophylline A Attempt #4 (HarryS)] | 0.226 | 0.275 | 0.275 | 0.37 | 0.214
CUAGGCCCUCGGCGGGACAUUGCGUGGGAAGGAGCGCAGAUAACUGCAGGUAGGUCGCCCAGUGAUGUUGGGCGAAUAUUGGUCA [Esinabige] | 0.102 | 0.0983 | 0.124 | 0.12 | 0.11
UGAUUUAACUGAAGGAGCGGCAAUUGAUAAGUAAAUAUAGUGAUGUUAUAUAAGAUAGAGAGCCAGGUAGGUCGCAGAGGUAGGA [ExArgB.K] | 0.193 | 0.139 | 0.152 | 0.178 | 0.127
AGCAGUGAUGUUGCUCAAUUUACAGGUGAUACCAGAGGUCAGUCUCUCCCUUGGCAGCACUUCAUACGAUGAUGUUUUAUCGGCC [theeternabot_sameState_KL_Theo_A_50] | 0.374 | 0.321 | 0.37 | 0.378 | 0.313
CACGAUGAAUUCUCUAGGAGUGAUGUUUUUCGAGGACCGGUACGGCCGCCACUCGGACGACGAGCGUGGUAGCGGCGUGAAGACU [zamullin] | 0.365 | 0.276 | 0.625 | 0.459 | 0.452
CAUAGGAAACUAUGUUUCUCUCUGACUGAAGGAGCGCGUGAAAACGCAGGUAGGUCGCAGAAUUUAACAGAGAGUGAUGUUCUCA [Ex Arginine A K4 12] | 0.457 | 0.396 | 0.567 | 0.633 | 0.43
GCCGUACGCAUGGAUACCAGCAAUUAUGCUCGUAUCCUAGUGAUGUUAGUGGCGAAUAUUUGCCCUUGGCAGCCAUGCGUACGGC | 1.08 | 0.841 | 1.16 | 0.691 | 0.936
AACCACUCGUUACAUCACUAUCGAGUGGAACGAGGACCGGUACGGCCGCCACUCGGUAACAAGCAGUGAUGUUGCUUGUAAGAAU [KL-SSTryp-A (BrourdMod)2 #dotplot2 strengthened] | 0.298 | 0.252 | 0.307 | 0.312 | 0.164
UUUAUUAAGACGGCCGCCACUGAUUCAUAGUGAUGUUAUGAUAUAAUUUUAGUGAUGUGCAUUAGCAGGACCGGGUCAAUUAUUA [#28 K4 Tryptophan B Exclusion] | 0.125 | 0.108 | 0.12 | 0.0947 | 0.101

Sequence | apparent KD of K4 kissing-loop reporter (input ligand: FMN 200 uM) [µM] | apparent KD of K4 kissing-loop reporter (input ligand: arginine 13.2 mM) [µM] | apparent KD of K4 kissing-loop reporter (input ligand: none) [µM] | apparent KD of K4 kissing-loop reporter [1] [µM] | apparent KD of K4 kissing-loop reporter [2] [µM]
UGAUAAAGCAGUGAUGUUGCAAGAAAUGAUACCAGUUAAGAAGAGAACCCUUGGCAGCAUAAAGUGCGCUCUAAUGAGUGUGCUU [whbob_SS_Theo_A_w50] | 0.0888 | 0.143 | 0.123 | 0.179 | 0.0876
AGGUCACGAGGAAGGAGCGCCCUGACAGGUUGCUGCCGUGGGCAGUGAUGUUGCUCAGUCCGGCAGGUAGGUCGCCUCGUGACCU | 0.151 | 0.174 | 0.147 | 0.111 | 0.148
CGGAUGUAGUGAUGUUAUAUUAGAUGUAGACGAGGACCGGUACGGCCGCCACUCGAAACGGCUGCUAGCGCGUUGCGAGGUGUGC [ExTryptoA.Ck] | 0.341 | 0.525 | 1.12 | 0.419 | 0.456
CGAGUGAUGUUCGAAGAGUUGUUAAGCGAUACCAGCUAGGAAACUGGCCCUUGGCAGCGUAAUAAGUUAAUAAAUAAAUGAUCAC [whbob_Ex_Theo_A_th64] | 0.376 | 0.411 | 0.36 | 0.449 | 0.301
UGAUACCAGACGGCCGCCACUUCUGCAAGUCAAAGACUUGCUAAAGGAAUCGUCCAGUGAUGUUGGAGGACCGGGUCUGGUAUCU [FiskerMod 1 - Jieux - Exclusion - Tryptophan B] | 1.02 | 0.823 | 1.17 | 0.638 | 0.772
GGUAGCAUGGCGGCCGCCACUAGAUCAGUGAUGUUGAUCCCGCCGUCUUACGGCGAGUCAGAGGCUAGGACCGGGCCAUGCUACC | 0.601 | 0.318 | 0.49 | 0.59 | 0.963
UUCUUGAUGGAAACAUCGAGUAUUACUGAUACCAGUAUCGAUAGAUACCCUUGGCAGCAGAAUCAGUAAUAACGAGUGAUGUUCG [Ex Theophylline A K4 5] | 0.509 | 0.494 | 0.505 | 0.567 | 0.48
UGUUUUUUUUUGAUGUUUGUUGUAAAAUGGCAGGAUAUCGUAGAGGCGAGAAGGGCUUUUAUGCGUUAUGAGUGAUGUUUGUAGG [vevvmullin] | 0.418 | 0.252 | 0.381 | 0.269 | 0.284
GCCGUAGAUUGAAGGAGCGAGUAGGCUCACUUGCGAAGUGAAUAGCAGAGUGAUGUUCUGUCUCAGGUAGGUCGCAAUCUACGGC | 0.701 | 0.172 | 0.388 | 0.436 | 0.397
UGACUGGACUGAAGGAGCGCGCGAGACAAAGUCUCGAACUCGUAGUGAUGUUAGGAAAUAACGCAGGUAGGUCGCAGUCUAGUCU | 0.651 | 0.417 | 0.611 | 0.796 | 0.512
UGAACUUUUGCUAGGAACCGUCUAGCUCUUUAGGAUAUCUGGAAACAGAGAAGGAAAGACCUACAGAGUGAUGUUCUGCGUUCAU | 0.383 | 0.268 | 0.316 | 0.316 | 0.263
AAAUUCUUUUUUUUAUUUAACUUUUCAGAAGGAGCGUGGUAGUUCACAGGUAGGUCGCUGAAUUUUGGACUAGUGAUGUUAGUUA [JR_SSArginiA_Sub006] | 0.148 | 0.214 | 0.234 | 0.216 | 0.158
UUAUUAAUAACAGAUACCAGUCCAGAAUGAAUACUAUAGUGAUGUUAUAAUAAAGGGAAGGACCCUUGGCAGCUGUAAUAUAUUU [AstrosSSTheB#1] | 0.431 | 0.381 | 0.501 | 0.338 | 0.368
GGCCGGAAGGCGAGCGCUCCCACUCCGGAAGGAGCGCCCGGAAGGGCAGGUAGGUCGCCGGAGUGAUGUUCCGGUGGAGGGCUCG [#2 Exclusion - Arginine A Attempt #19 (Inspired by Omei)] | 0.141 | 0.12 | 0.0804 | 0.271 | 0.0702
AUAGGAGUGAUGUUCCUUAGUCUCUCCGAUACCAGUAUGGAAACAUACCCUUGGCAGCGGUAGACCGCAGAUUAGGAAACUAGUC [Theophylline A K4 3] | 0.657 | 0.726 | 0.785 | 0.503 | 0.61
UUUCAAAUUUAAGGAUAUUAGAUACCAGGAAAGGAGUGAUGUUCCGUGCUACGAUAGUGCUAGGGCUAAGAAGGUAAGUCUCGAG [theeternabot_sameState_KL_FMN_B_37] | 0.0791 | 0.0872 | 0.0856 | 0.0896 | 0.0591
ACGGAGUGAUGUUCCGGCCUCCCAGCAGAUACCAGCAGUCGCGAUUGCCCUUGGCAGCUGUCCGCGGCAUCCACUUGUAGCGGUA [theeternabot_exclusion_KL_Theo_A_12] | 0.223 | 0.173 | 0.204 | 0.222 | 0.197
AAUUUAUUAACUGAUACCAGACUUAAUGAAUUGUAAAUUACUAGUGAUGUUAGUGAAUCUGUCCCUUGGCAGCAGUAUUUAUUAA [JR_ExcTheophyB_Sub010] | 0.144 | 0.209 | 0.173 | 0.208 | 0.124
GAACGGAGUGAUGUUCCGUUGACGAUCCUACGAGGACCGGUACGGCCGCCACUCGUAUUGCAGUGAUGUUGCAACCAGCCGUACU [Exclusion Tryptophan A GF 10] | 0.104 | 0.112 | 0.102 | 0.106 | 0.0879
UGUAAGCGCGUAGAUACCAGCAAACAAAGAGUGAUGUUCAGAUUAAGGAAAAGAAAGUAAUGCCCUUGGCAGCUAAUCAUAAGCG [Theophylline B Exclusion; Euphoria Solution] | 0.419 | 0.409 | 0.354 | 0.497 | 0.319
CCUAUCUGUUACGAUACCAGUCAAAGAUAUUUUAUCAAUGCCCUCACCGAGUGAUGUUCGGACCCUUGGCAGCGUCUGGGAUAGG [pnnbmullin] | 0.187 | 0.138 | 0.185 | 0.119 | 0.15
